Measurements published in publication PMC9482650, “Quantitative fragmentomics allow affinity mapping of interactomes” (Nature Communications, 2022).

Assays:
Test in all cases: holdup assay
Design in all cases: key: below the threshold = too weak to quantify, mostly under pKd 3.1 to 4
Settings in all cases: plain residues with an end cap or a label only (N-terminal biotin on a linker: ado-ado)
[1] = target: Inadl_10, Q8NI35
[2] = target: GRIP2_7, Q9C0E4
[3] = target: T1, PCLO, Q9Y6V0
T1 sequence (Q9Y6V0 4491-4600, limits assumed, looked up): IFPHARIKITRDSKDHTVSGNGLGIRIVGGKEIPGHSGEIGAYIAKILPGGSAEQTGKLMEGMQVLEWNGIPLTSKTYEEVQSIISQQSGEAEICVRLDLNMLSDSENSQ

[4] = target: T2, RAPGEF6, Q8TEU7
T2 sequence (Q8TEU7 525-625, limits assumed, looked up): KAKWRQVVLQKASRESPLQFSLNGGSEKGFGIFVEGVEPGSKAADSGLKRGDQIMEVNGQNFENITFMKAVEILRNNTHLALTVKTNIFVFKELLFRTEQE

[5] = target: LIMK2, P53671
[6] = target: Inadl_9, Q8NI35
[7] = target: T3, LIN7A, O14910
T3 sequence (O14910 103-200, limits assumed, looked up): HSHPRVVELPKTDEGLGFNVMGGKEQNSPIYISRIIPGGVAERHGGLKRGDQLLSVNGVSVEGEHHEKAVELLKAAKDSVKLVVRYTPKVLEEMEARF

[8] = target: HTRA2, O43464
[9] = target: T4, TX1BP3, O14907
T4 sequence (O14907 10-122, limits assumed, looked up): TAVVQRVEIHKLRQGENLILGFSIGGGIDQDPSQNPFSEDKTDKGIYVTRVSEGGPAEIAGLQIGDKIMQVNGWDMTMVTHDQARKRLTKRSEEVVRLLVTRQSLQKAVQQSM

[10] = target: T5, SNTG2, Q9NY99
T5 sequence (Q9NY99 68-166, limits assumed, looked up): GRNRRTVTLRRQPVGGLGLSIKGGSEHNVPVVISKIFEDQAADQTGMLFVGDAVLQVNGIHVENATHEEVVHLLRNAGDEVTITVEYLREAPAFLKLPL

[11] = target: T6, DLG3_2, Q92796
T6 sequence (Q92796 221-321, limits assumed, looked up): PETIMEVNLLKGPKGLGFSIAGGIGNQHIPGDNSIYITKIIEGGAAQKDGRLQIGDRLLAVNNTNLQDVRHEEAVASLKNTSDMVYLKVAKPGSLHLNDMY

[12] = target: LNX1_1, Q8TBB1
[13] = target: T7, PARD3B_1, Q8TEW8
T7 sequence (Q8TEW8 196-299, limits assumed, looked up): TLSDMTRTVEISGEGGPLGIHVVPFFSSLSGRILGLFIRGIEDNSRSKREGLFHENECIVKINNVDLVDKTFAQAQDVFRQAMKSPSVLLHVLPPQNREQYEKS

[14] = target: GRASP, Q7Z6J2
[15] = target: LNX1_2, Q8TBB1
[16] = target: FRMPD3, Q5JV73
[17] = target: T8, APBA2_2, Q99767
T8 sequence (Q99767 654-744, limits assumed, looked up): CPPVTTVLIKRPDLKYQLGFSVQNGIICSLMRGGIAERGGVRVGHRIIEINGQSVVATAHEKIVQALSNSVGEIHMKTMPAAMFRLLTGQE

[18] = target: T9, LIN7C, Q9NUP9
T9 sequence (Q9NUP9 88-185, limits assumed, looked up): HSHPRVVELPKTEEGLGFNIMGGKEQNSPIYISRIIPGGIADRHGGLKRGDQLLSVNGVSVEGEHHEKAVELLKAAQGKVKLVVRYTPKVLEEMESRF

[19] = target: T10, APBA2_1, Q99767
T10 sequence (Q99767 563-664, limits assumed, looked up): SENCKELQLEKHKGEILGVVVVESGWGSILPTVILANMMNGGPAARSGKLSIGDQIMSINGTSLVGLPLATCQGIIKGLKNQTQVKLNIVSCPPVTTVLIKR

[20] = target: DLG1_3, Q12959
[21] = target: T11, APBA1_1, Q02410
T11 sequence (Q02410 651-752, limits assumed, looked up): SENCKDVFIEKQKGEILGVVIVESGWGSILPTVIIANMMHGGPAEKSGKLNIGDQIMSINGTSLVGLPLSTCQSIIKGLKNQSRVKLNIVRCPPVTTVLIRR

[22] = target: MAGI3_2, Q5TCQ9
[23] = target: ARHGEF12, Q9NZN5-2
[24] = target: T12, DLG3_1, Q92796
T12 sequence (Q92796 125-227, limits assumed, looked up): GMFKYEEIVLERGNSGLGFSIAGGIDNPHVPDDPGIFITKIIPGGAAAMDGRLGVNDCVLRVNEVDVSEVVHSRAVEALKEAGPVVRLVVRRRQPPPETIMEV

[25] = target: MAGI2_6, Q86UL8
MAGI2_6, Q86UL8, sequence (Q86UL8 1141-1229): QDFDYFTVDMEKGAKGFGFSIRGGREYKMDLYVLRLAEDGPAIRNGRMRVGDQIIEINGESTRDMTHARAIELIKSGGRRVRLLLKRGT

GRASP, Q7Z6J2, sequence (Q7Z6J2 96-193): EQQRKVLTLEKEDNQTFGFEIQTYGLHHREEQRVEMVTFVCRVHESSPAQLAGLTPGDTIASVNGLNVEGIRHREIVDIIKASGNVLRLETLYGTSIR
LNX1_1, Q8TBB1, sequence (Q8TBB1 261-371): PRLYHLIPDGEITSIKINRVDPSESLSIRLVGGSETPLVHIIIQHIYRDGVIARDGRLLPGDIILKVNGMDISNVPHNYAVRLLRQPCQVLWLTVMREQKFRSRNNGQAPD
MAGI3_2, Q5TCQ9, sequence (Q5TCQ9 398-503): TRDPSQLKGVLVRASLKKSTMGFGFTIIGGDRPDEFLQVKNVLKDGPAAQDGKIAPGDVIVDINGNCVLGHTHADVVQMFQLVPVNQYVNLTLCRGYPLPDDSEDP
DLG1_3, Q12959, sequence (Q12959 457-571): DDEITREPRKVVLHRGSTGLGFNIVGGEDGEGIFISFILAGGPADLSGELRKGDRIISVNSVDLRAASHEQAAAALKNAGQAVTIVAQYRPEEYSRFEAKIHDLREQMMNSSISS
HTRA2, O43464, sequence (O43464 355-458): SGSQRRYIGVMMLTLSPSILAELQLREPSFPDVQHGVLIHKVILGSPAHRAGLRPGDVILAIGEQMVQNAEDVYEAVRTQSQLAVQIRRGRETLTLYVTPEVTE
ARHGEF12, Q9NZN5-2, sequence (Q9NZN5 other isoform, or with tags, fused parts or gaps): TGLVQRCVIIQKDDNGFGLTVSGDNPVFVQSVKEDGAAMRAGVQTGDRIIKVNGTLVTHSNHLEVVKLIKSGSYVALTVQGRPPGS
Inadl_10, Q8NI35, sequence (Q8NI35 1673-1763): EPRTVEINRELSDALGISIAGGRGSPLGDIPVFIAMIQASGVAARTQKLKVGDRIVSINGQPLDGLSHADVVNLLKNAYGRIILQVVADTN
FRMPD3, Q5JV73, sequence (Q5JV73 12-100): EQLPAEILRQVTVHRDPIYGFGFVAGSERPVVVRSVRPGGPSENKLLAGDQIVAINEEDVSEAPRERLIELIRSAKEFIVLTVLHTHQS
Inadl_9, Q8NI35, sequence (Q8NI35 1530-1615): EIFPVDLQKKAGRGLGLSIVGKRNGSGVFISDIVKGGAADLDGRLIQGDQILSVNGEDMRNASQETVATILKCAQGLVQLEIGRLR
LIMK2, P53671, sequence (P53671 143-248): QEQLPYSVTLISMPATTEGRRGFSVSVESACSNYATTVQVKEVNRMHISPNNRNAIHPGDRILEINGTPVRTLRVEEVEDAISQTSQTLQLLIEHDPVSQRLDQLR
GRIP2_7, Q9C0E4, sequence (Q9C0E4 934-1023): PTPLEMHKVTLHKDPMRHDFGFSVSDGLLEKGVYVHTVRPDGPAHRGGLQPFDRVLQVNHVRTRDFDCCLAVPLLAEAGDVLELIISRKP
LNX1_2, Q8TBB1, sequence (Q8TBB1 371-470): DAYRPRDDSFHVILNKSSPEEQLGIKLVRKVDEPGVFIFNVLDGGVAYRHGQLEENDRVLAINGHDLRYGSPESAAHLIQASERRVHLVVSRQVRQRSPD

Binder	pKd [1]	pKd [2]	pKd [3]	pKd [4]	pKd [5]	pKd [6]	pKd [7]	pKd [8]	pKd [9]	pKd [10]	pKd [11]	pKd [12]	pKd [13]	pKd [14]	pKd [15]	pKd [16]	pKd [17]	pKd [18]	pKd [19]	pKd [20]	also measured
KIEDVEITLV [FCHSD2, O94868]	below the threshold	below the threshold	below the threshold	below the threshold	below the threshold	3.68	below the threshold	3.93	3.98	3.58	3.53	below the threshold	3.91	5.5	4.55	below the threshold	3.51	4.11	below the threshold	3.59	pKd [21]: below the threshold; pKd [22]: 4.05; pKd [23]: 3.85; pKd [24]: below the threshold; pKd [25]: 4.24
KEKASTETEC [TRPM1, Q7Z4N2]	below the threshold	below the threshold	below the threshold	below the threshold	below the threshold	below the threshold	below the threshold	below the threshold	below the threshold	below the threshold	3.92	below the threshold	3.97	below the threshold	below the threshold	below the threshold	below the threshold	3.93	below the threshold	below the threshold	pKd [21]: below the threshold; pKd [22]: below the threshold; pKd [23]: 3.58; pKd [24]: below the threshold; pKd [25]: below the threshold
PLPPEEESWV [GAS2L2, Q8NHY3]	below the threshold	4.09	below the threshold	3.6	below the threshold	4.34	below the threshold	3.96	4.62	4.24	4.64	below the threshold	3.95	4.23	3.94	3.72	below the threshold	3.77	below the threshold	below the threshold	pKd [21]: below the threshold; pKd [22]: 4.38; pKd [23]: below the threshold; pKd [24]: 4.01; pKd [25]: 5.88
QKASRNESTF [POLR1D, P0DPB6]	below the threshold	below the threshold	below the threshold	below the threshold	below the threshold	below the threshold	below the threshold	below the threshold	below the threshold	below the threshold	4.23	3.52	4.05	below the threshold	below the threshold	below the threshold	below the threshold	below the threshold	below the threshold	below the threshold	pKd [21]: below the threshold; pKd [22]: below the threshold; pKd [23]: below the threshold; pKd [24]: below the threshold; pKd [25]: below the threshold
STYCDYTIEI [FAM71C, Q8NEG0]	below the threshold	below the threshold	below the threshold	below the threshold	below the threshold	4.19	below the threshold	3.85	below the threshold	below the threshold	below the threshold	below the threshold	4.1	3.69	4.35	below the threshold	below the threshold	below the threshold	below the threshold	below the threshold	pKd [21]: below the threshold; pKd [22]: below the threshold; pKd [23]: 3.76; pKd [24]: below the threshold; pKd [25]: below the threshold
MQILSKPEFI [NPSR1, Q6W5P4]	below the threshold	3.69	below the threshold	below the threshold	below the threshold	3.64	below the threshold	3.72	below the threshold	below the threshold	4.18	below the threshold	4.09	3.68	below the threshold	below the threshold	below the threshold	below the threshold	3.74	below the threshold	pKd [21]: 3.88; pKd [22]: below the threshold; pKd [23]: below the threshold; pKd [24]: below the threshold; pKd [25]: below the threshold
